Measured values published in patent publication US8119766 (UNIVERSITY OF IOWA RESEARCH FOUNDATION, dated 2012).
Values belong to the molecule of their own block, whether it stands above or below them.

Experiments:
[1] = molecular target: full-length α-DG-IgG Fc fusion protein (DGFc5), secreted form from conditioned medium (human); assay: solid-phase binding of laminin-1, nonlinear regression (FIG. 8C)
[2] = molecular target: LARGE-modified DGFc5 (human); assay: solid-phase laminin-1 binding assay, nonlinear regression (FIG. 9C)
[3] = molecular target: full-length α-DG-IgG Fc fusion protein (DGFc5), secreted form from conditioned medium (human); assay: as above
[4] = molecular target: T1, laminin-1 (mouse, UniProt P19137 25-3083; P02469 22-1786; P02468 34-1607); assay: solid-phase binding of laminin-1, nonlinear regression (FIG. 8C)
T1 construct: also called mouse EHS laminin-1; biotinylated laminin-1

[5] = molecular target: T1, laminin-1; assay: laminin-1 overlay, with LARGE co-expression
[6] = molecular target: T1, laminin-1; assay: laminin overlay

Kd [1]: 1.1 nM | Kd [2]: 1.6 nM | Kd [3]: 3.1 nM
Molecule: laminin-1 (from UniProt P19137 25-3083; P02469 22-1786; P02468 34-1607) (ligand)

Kd [4]: 0.4 nM
B1: native α-DG (receptor, rabbit, UniProt Q28685 30-653, looked up)
chain: HWPSEPSEAVRDWENQLEASMHSVLSDLHEALPTVVGIPDGTAVVGRSFRVTIPTDLIGSSGEVIKVSTAGKEVLPSWLHWDPQSHTLEGLPLDTDKGVHYISVSAAQLDANGSHIPQTSSVFSIEVYPEDHSEPQSVRAASPDLGEAAASACAAEEPVTVLTVILDADLTKMTPKQRIDLLHRMQSFSEVELHNMKLVPVVNNRLFDMSAFMAGPGNAKKVVENGALLSWKLGCSLNQNSVPDIRGVEAPAREGTMSAQLGYPVVGWHIANKKPPLPKRIRRQIHATPTPVTAIGPPTTAIQEPPSRIVPTPTSPAIAPPTETMAPPVRDPVPGKPTVTTRTRGAIIQTPTLGPIQPTRVSDAGTVVSGQIRATVTIPGYVEPTAVATPPTTTTKKPRVSTPKPATPSTDSSATTTRRPTKKPRTPRPVPRVTTKAPITRLETASPPTRIRTTTSGVPRGGEPNQRPELKNHIDRVDAWVGTYFEVKIPSDTFYDKEDTTTDKLKLTLKLREQQLVGEKSWVQFNSNSQLMYGLPDSSHVGKHEYFMHATDKGGLSAVDAFEIHVHKRPQGDKAPARFKAKFVGDPAPVVNDIHKKIALVKKLAFAFGDRNCSTVTLQNITRG
modifications: native glycosylation; sites not stated
notes: mature; also called native α-dystroglycan purified from rabbit skeletal muscle

binding result [5]: no binding
B2: DGFc6, secreted form (Fc fusion, UniProt Q28685 317-653, looked up)
chain: TPTPVTAIGPPTTAIQEPPSRIVPTPTSPAIAPPTETMAPPVRDPVPGKPTVTTRTRGAIIQTPTLGPIQPTRVSDAGTVVSGQIRATVTIPGYVEPTAVATPPTTTTKKPRVSTPKPATPSTDSSATTTRRPTKKPRTPRPVPRVTTKAPITRLETASPPTRIRTTTSGVPRGGEPNQRPELKNHIDRVDAWVGTYFEVKIPSDTFYDKEDTTTDKLKLTLKLREQQLVGEKSWVQFNSNSQLMYGLPDSSHVGKHEYFMHATDKGGLSAVDAFEIHVHKRPQGDKAPARFKAKFVGDPAPVVNDIHKKIALVKKLAFAFGDRNCSTVTLQNITRG
notes: domain: mucin-like domain and C-terminal domain; Tested with and without LARGE co-expression; not shown: IgG Fc portion

binding result [6]: no binding
B3: DGFc2 prepared from cell lysate (Fc fusion, UniProt Q28685 30-316, looked up)
chain: HWPSEPSEAVRDWENQLEASMHSVLSDLHEALPTVVGIPDGTAVVGRSFRVTIPTDLIGSSGEVIKVSTAGKEVLPSWLHWDPQSHTLEGLPLDTDKGVHYISVSAAQLDANGSHIPQTSSVFSIEVYPEDHSEPQSVRAASPDLGEAAASACAAEEPVTVLTVILDADLTKMTPKQRIDLLHRMQSFSEVELHNMKLVPVVNNRLFDMSAFMAGPGNAKKVVENGALLSWKLGCSLNQNSVPDIRGVEAPAREGTMSAQLGYPVVGWHIANKKPPLPKRIRRQIHA
notes: domain: N-terminal domain; About 65 kDa; also called DGFc2 (cell lysate); not shown: IgG Fc portion

binding result [6]: no binding
B4: secreted DGFc2 from cells cultured with CMK (Fc fusion, UniProt Q28685 30-316, looked up)
chain: B3 chain
notes: domain: N-terminal domain; Migrated at the same size (~65 kDa) as DGFc2 from cell lysate; also called DGFc2 (CMK-treated, secreted); not shown: IgG Fc portion
